Experimental findings from PMC2173256 (The Journal of Cell Biology, 2002) are described below.

Some targets named below: FLAG XIAP T143A E314S (UniProt P98170 1-497, T143A | E314S); FLAG XIAP V146A E314S (UniProt P98170 1-497, V146A | E314S); FLAG XIAP D148A E314S (UniProt P98170 1-497, D148A | E314S); FLAG XIAP D148A G306S (UniProt P98170 1-497, D148A | G306S); FLAG XIAP N259D (UniProt P98170 1-497, N259D); FLAG XIAP H343A (UniProt P98170 1-497, H343A); FLAG XIAP D214S (UniProt P98170 1-497, D214S); FLAG XIAP D214S N259D (UniProt P98170 1-497, D214S | N259D); FLAG XIAP E314S (UniProt P98170 1-497, E314S); FLAG XIAP N259D E314S (UniProt P98170 1-497, N259D | E314S); FLAG XIAP W310A E314S (UniProt P98170 1-497, W310A | E314S); FLAG XIAP D214S H343A (UniProt P98170 1-497, D214S | H343A).

What all share (assay): co-IP
Assay [1] addresses FLAG XIAP (X-linked mammalian inhibitor of apoptosis protein), wild-type, full length (UniProt P98170 1-497).
For assay [2], the target named is FLAG XIAP D148A W310A E314S (UniProt P98170 1-497, D148A | W310A | E314S).
For assay [3], the target named is FLAG XIAP D148A D214S H343A (UniProt P98170 1-497, D148A | D214S | H343A).
FLAG XIAP D148A D214S H343A, sequence (P98170 whole entry D148A/D214S/H343A): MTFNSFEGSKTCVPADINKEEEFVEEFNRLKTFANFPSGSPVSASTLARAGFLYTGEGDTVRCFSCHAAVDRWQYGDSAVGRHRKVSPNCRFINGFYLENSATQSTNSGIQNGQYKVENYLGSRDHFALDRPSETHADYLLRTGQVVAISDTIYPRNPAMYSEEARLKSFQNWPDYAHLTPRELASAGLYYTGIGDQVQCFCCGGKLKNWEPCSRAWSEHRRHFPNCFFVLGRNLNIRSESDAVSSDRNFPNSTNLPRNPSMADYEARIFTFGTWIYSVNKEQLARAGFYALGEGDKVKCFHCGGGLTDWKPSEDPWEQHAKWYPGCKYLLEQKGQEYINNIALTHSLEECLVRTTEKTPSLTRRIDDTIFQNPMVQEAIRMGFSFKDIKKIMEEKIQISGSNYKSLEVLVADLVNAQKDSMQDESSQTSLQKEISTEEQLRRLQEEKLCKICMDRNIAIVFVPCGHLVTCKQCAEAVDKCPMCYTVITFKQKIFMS

FLAG XIAP D214S, sequence (P98170 whole entry D214S): as the sequence (P98170 whole entry D148A/D214S/H343A) above, with A148D, A343H counted along it
FLAG XIAP D148A G306S, sequence (P98170 whole entry D148A/G306S): as the sequence (P98170 whole entry D148A/D214S/H343A) above, with S214D, G306S, A343H counted along it
FLAG XIAP N259D E314S, sequence (P98170 whole entry N259D/E314S): as the sequence (P98170 whole entry D148A/D214S/H343A) above, with A148D, S214D, N259D, E314S, A343H counted along it
FLAG XIAP N259D, sequence (P98170 whole entry N259D): as the sequence (P98170 whole entry D148A/D214S/H343A) above, with A148D, S214D, N259D, A343H counted along it
FLAG XIAP E314S, sequence (P98170 whole entry E314S): as the sequence (P98170 whole entry D148A/D214S/H343A) above, with A148D, S214D, E314S, A343H counted along it
FLAG XIAP D214S H343A, sequence (P98170 whole entry D214S/H343A): as the sequence (P98170 whole entry D148A/D214S/H343A) above, with A148D counted along it
FLAG XIAP H343A, sequence (P98170 whole entry H343A): as the sequence (P98170 whole entry D148A/D214S/H343A) above, with A148D, S214D counted along it
FLAG XIAP T143A E314S, sequence (P98170 whole entry T143A/E314S): as the sequence (P98170 whole entry D148A/D214S/H343A) above, with T143A, A148D, S214D, E314S, A343H counted along it
FLAG XIAP D214S N259D, sequence (P98170 whole entry D214S/N259D): as the sequence (P98170 whole entry D148A/D214S/H343A) above, with A148D, N259D, A343H counted along it
FLAG XIAP D148A E314S, sequence (P98170 whole entry D148A/E314S): as the sequence (P98170 whole entry D148A/D214S/H343A) above, with S214D, E314S, A343H counted along it
FLAG XIAP D148A W310A E314S, sequence (P98170 whole entry D148A/W310A/E314S): as the sequence (P98170 whole entry D148A/D214S/H343A) above, with S214D, W310A, E314S, A343H counted along it
FLAG XIAP V146A E314S, sequence (P98170 whole entry V146A/E314S): as the sequence (P98170 whole entry D148A/D214S/H343A) above, with V146A, A148D, S214D, E314S, A343H counted along it
FLAG XIAP (X-linked mammalian inhibitor of apoptosis protein), wild-type, full length, sequence (P98170 whole entry): as the sequence (P98170 whole entry D148A/D214S/H343A) above, with A148D, S214D, A343H counted along it
FLAG XIAP W310A E314S, sequence (P98170 whole entry W310A/E314S): as the sequence (P98170 whole entry D148A/D214S/H343A) above, with A148D, S214D, W310A, E314S, A343H counted along it

B1: processed DIABLO (HA-tagged DIABLO) (natural protein)
chain: AVPIAQKSEPQSLSNEALMRRAVSLVTDSTSTFLSQTTYALIEAITEYTKAVYTLVSLYRQYTSLLGKMNSQEEDEVWQVIIGARVEMTSKQQEYLKLETTWMTAVGLSEMAAEAAYQTGADQASITARNHIQLVKSQVQEVRQLSQKAETKLAEAQTKELHQKAQEVSDEGADQEEEAYLRED
As to B1, the “DIABLO binding relative to wild-type XIAP (arbitrary value, 10 = 100%)” value in assay [1] is 10 arbitrary (10 = 100%); with FLAG XIAP T143A E314S, 5 arbitrary (10 = 100%); in the assay with FLAG XIAP V146A E314S, 5 arbitrary (10 = 100%); with FLAG XIAP D148A E314S, 5 arbitrary (10 = 100%); in assay [2], 4 arbitrary (10 = 100%); in [3], 9 arbitrary (10 = 100%). Moreover, the “DIABLO binding relative to wild-type XIAP (arbitrary value, 10 = 100%)” value was 8 arbitrary (10 = 100%) in the assay with FLAG XIAP D148A G306S; 10 arbitrary (10 = 100%) with FLAG XIAP N259D; 10 arbitrary (10 = 100%) in the assay with FLAG XIAP H343A; 9 arbitrary (10 = 100%) with FLAG XIAP D214S; 9 arbitrary (10 = 100%) with FLAG XIAP D214S N259D; 5 arbitrary (10 = 100%) in the assay with FLAG XIAP E314S. Further, the “DIABLO binding relative to wild-type XIAP (arbitrary value, 10 = 100%)” value was 5 arbitrary (10 = 100%) with FLAG XIAP N259D E314S, 4 arbitrary (10 = 100%) with FLAG XIAP W310A E314S and 8 arbitrary (10 = 100%) in the assay with FLAG XIAP D214S H343A.
